In patent publication US20230212268A1 (UNM RAINFOREST INNOVATIONS, published 2023):
Values joined by “and” are separate entries in the source; they are usually repeats but may differ in a detail not shown here. Equal entries are not always repeated.

Key:
[1] = biological target: T1, recombinant TAFV glycoprotein (TAFV (Tai Forest virus), UniProt Q66810 33-650); assay: ELISA dose response, GP coated
T1 sequence: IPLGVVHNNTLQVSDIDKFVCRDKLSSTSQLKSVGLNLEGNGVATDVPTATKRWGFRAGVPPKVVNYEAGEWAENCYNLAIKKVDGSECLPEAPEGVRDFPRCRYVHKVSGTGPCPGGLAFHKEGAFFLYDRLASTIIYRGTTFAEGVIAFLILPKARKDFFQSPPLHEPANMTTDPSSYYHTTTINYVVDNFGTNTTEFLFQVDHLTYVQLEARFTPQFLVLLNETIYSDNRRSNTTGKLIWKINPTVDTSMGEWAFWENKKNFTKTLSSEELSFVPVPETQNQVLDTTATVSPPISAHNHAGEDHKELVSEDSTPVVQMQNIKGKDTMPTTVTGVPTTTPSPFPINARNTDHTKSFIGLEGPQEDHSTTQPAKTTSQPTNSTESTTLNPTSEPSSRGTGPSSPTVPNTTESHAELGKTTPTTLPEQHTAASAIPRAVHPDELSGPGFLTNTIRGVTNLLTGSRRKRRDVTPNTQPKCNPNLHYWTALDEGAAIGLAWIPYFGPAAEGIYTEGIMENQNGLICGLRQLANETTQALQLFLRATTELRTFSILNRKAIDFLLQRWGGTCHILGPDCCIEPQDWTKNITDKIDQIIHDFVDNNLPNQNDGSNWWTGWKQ

[2] = biological target: recombinant BDBV glycoprotein (BDBV (Bundibugyo ebolavirus)); assay: ELISA dose response, GP coated
[3] = biological target: T2, recombinant RESTV glycoprotein (RESTV (Reston ebolavirus), UniProt Q66799 34-651); assay: ELISA dose-response fit, reference scFv22-1
T2 sequence: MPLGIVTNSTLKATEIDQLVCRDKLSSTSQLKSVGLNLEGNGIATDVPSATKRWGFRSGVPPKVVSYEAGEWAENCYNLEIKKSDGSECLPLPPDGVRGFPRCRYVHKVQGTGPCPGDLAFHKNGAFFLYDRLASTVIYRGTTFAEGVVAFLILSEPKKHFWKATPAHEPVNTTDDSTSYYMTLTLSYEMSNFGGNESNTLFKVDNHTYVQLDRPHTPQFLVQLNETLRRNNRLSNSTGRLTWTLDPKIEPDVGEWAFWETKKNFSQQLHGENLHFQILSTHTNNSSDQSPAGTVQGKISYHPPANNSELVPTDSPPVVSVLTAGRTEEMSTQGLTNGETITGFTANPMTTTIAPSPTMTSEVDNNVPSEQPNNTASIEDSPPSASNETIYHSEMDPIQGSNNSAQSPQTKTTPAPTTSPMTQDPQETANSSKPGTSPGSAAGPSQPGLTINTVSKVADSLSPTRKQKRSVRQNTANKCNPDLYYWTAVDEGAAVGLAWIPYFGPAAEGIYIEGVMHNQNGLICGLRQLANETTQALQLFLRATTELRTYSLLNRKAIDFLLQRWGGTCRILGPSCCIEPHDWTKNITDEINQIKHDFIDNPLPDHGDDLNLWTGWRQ

[4] = biological target: T3, recombinant MARV glycoprotein (MARV (marburgvirus, Ravn), UniProt Q1PDC7 19-648); assay: ELISA dose-response fit, reference scFv22-1
T3 sequence: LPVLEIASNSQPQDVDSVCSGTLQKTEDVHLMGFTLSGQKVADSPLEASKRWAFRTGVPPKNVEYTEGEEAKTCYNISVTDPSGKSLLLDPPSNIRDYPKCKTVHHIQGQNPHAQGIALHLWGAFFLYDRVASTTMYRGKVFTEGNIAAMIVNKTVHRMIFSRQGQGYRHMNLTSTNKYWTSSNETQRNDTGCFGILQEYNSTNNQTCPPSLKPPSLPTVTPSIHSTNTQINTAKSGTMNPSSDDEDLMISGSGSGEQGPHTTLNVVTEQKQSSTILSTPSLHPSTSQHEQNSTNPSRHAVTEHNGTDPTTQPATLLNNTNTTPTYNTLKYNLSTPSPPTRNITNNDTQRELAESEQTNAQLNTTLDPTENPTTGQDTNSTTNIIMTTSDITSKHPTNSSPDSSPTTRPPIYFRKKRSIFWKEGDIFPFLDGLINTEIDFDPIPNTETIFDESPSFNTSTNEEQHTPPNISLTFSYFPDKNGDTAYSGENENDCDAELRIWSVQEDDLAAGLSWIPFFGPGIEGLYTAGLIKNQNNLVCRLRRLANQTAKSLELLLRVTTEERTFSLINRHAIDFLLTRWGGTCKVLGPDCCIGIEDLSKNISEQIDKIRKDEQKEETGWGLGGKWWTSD

[5] = biological target: T4, recombinant EBOV glycoprotein (EBOV (Zaire ebolavirus), UniProt Q05320 33-650); assay: ELISA dose-response fit, reference scFv22-1
T4 sequence: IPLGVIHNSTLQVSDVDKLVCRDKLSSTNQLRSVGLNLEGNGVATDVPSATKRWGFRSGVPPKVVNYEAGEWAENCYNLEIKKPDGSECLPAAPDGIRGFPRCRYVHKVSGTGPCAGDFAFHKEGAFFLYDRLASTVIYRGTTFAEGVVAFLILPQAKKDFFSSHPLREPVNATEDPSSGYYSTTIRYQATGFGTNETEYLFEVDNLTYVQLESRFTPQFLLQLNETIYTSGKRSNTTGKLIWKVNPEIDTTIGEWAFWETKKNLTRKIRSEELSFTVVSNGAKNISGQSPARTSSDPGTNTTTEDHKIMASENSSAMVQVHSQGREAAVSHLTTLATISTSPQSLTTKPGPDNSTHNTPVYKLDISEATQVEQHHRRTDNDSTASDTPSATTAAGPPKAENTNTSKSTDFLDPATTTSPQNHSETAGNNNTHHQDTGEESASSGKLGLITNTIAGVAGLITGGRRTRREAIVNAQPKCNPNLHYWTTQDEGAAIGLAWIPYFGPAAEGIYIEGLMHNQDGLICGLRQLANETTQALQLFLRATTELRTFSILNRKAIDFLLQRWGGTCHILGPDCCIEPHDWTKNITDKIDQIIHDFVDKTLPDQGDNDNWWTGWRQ

B1: EbovGPscFv4-2 (scFv)
scFv: MAWSHPQFEKTGSGGAELVKSGASVKLSCTASGFNIKDDYMHWVKQRPEQGLEWIGWIDPENGDTEYASKFQGKATITADTSSNTAYLQLSSLTSEDTAVYYCTTYYYGSAWFAYWGQGTLVTVSAGGGGSGGGGSGGGGSGGGGSASLSVSVGETVTITCRASGNIHNYLAWYQQKQGKSPQLLVYNAKTLADGVPSRFSGSGSGTQYSLKINNLQPEDFGSYYCQHFWSTPYTFGGGTKLEIKRADAAPTVSIFPPSSEQLTSGGASVVCFLNNFTHCQELQQDECS
- EC50 [1]: < 9 µg/mL and 6.95 µg/mL
- EC50 [2]: 8.19 µg/mL
- fold affinity against scFv22-1 [3]: ~2 fold
- fold affinity against scFv22-1 [4]: ~2 fold
- fold affinity against scFv22-1 [5]: ~2 fold
